Literature values, collected in patent publication US20250009916A1, “COMBINATION THERAPY FOR TREATING LUNG CANCER” (Novartis AG, priority 2021, published 2025).
Where two headings read alike, the source gives them in different places.

Legend:
[1] = cited from earlier work
[2] = cited from earlier work; remark: listed apart in the source
SCLC = details: cited from earlier work
advanced solid tumors = details: cited from earlier work
GEP-NET = details: cited from earlier work
[3] = 100 mCi dose; patients pretreated, with risk factors or abnormal renal and bone marrow function; cited from earlier work
[4] = in vivo; cited from earlier work
ES-SCLC [5] = details: ES-SCLC patients, first-line, IMPower133; cited from earlier work
ES-SCLC [6] = details: ES-SCLC patients, durvalumab arm, CASPIAN; cited from earlier work
[7] = 200-mg fixed dose cohort, evaluable n=13
[8] = 17 SCLC patients, plus cisplatin/carboplatin and etoposide Q3W
[9] = 4 doses of 7.4 GBq/200 mCi every 8 weeks, GEP-NET patients

Which results are given for “tislelizumab: anti-PD-1 monoclonal antibody (Beigene), heavy chain SEQ ID NO: 1, light chain SEQ ID NO: 5”?
rates of treatment-related adverse events and serious adverse events across regimens ([1]; 2 mg/kg and 5 mg/kg, once every 2 weeks and once every 3 weeks): comparable; treatment-related adverse events versus body-weight-based cohorts ([1]; 200-mg fixed dose cohort, Phase Ia Part 3): no unexpected treatment-related adverse events; patients with BOR of partial response (PR) [1, 7]: 23%; patients with BOR of progressive disease (PD) [1, 7]: 46%; patients with BOR of stable disease [1, 7]: 31%; serum exposure ([2]; 200-mg dose): fell between serum exposure observed after 2 mg/kg and 5 mg/kg doses; CL ([2]; Phase Ia): independent of body weight, ethnicity, and gender; ORR (SCLC; [8]): 77%; median OS (SCLC; [8]): 15.6 months; median PFS (SCLC; [8]): 6.9 months; antitumor activity (SCLC; tislelizumab 200 mg with platinum-based chemotherapy, including SCLC group): Encouraging antitumor activity; tolerability (SCLC; tislelizumab 200 mg with platinum-based chemotherapy): generally well tolerated; safety signals in combination with standard-of-care chemotherapies (advanced solid tumors; first-line lung cancer): did not lead to new safety signals; safety profile (advanced solid tumors; monotherapy or combined with platinum-based chemotherapy): manageable safety profile

With “Lutetium (^177Lu) oxodotreotide [[^177Lu] Lu-DOTA-TATE]” as the substance, how does the “progression free survival and quality of life with approved regimen” value (GEP-NET; [9]) read?
Its value is “significant improvement of progression free survival (PFS) and quality of life”.

And the “safety of approved regimen” value (GEP-NET; [9])?
The value was “safe”.

And the median overall survival (GEP-NET; GEP-NET patients, phase 3 NETTER-1)?
Its median overall survival is 48 months.

And the “safety of additional doses exceeding 800 mCi cumulative dose” value (GEP-NET; literature)?
Its value is “without additional safety signals”.

And the tolerability [3]?
Its tolerability is “favorable tolerability”.

What about the elimination route [4] of the same substance?
Its elimination route is “mainly via the renal route”.

What about the “interaction with drug transporters” value [4] of the same substance?
The value was “does not interact with drug transporters”.

What about the metabolization [4] of the same substance?
Its metabolization is “very low (if any)”.

For “atezolizumab: immune checkpoint inhibitor antibody (Roche)”, which PFS (ES-SCLC [5]) is on record?
Its PFS is 5.2 months.

With durvalumab: PD-L1 inhibitor as the substance, how does the PFS (ES-SCLC [6]) read?
Its PFS is 5.1 months.
